Assay results published in patent US20260139046A1 (ATTOVIA THERAPEUTICS, published 2026).

How the values were obtained:
human IL31 [1] = biological target: T1, human IL31 (human, UniProt Q6EBC2 24-164, biotinylated in the SPR assay (site not stated)); assay: cell-based or functional assay
T1 sequence: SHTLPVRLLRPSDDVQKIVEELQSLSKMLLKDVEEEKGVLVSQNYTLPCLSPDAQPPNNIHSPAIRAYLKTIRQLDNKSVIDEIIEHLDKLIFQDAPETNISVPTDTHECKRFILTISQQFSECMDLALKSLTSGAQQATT

human IL31 [2] = biological target: T1, human IL31; assay: cell-based or functional assay; remark: listed apart in the source
human IL31 [3] = biological target: T1, human IL31; assay: cell-based or functional assay; remark: listed apart in the source
human IL31 [4] = biological target: T1, human IL31; assay: binding kinetics after 3x freeze/thaw; method and target not restated (SPR on IL31 presumed)
human IL31 [5] = biological target: T1, human IL31; assay: KD of wild-type and humanized co-binders; method not restated (SPR as in Example 4 presumed)
human IL31 [6] = biological target: T1, human IL31; assay: SPR (Biacore T200, Biotin CAPture): biotinylated IL31 captured, co-binder Fc fusion as analyte
Method: (§1) Binding affinity was measured using Biotin CAPture Kit (Cytiva Life Sciences) and the BIACORE™ T200 SPR system (Cytiva Life Sciences). Initially, Biotin CAPture Reagent (Cytiva Life Sciences) was flowed to immobilize 3 nM biotinylated IL31 (ligand). 3 nM, 9 nM, and 27 nM anti-IL31 co-binders were flowed as analyte with 180 seconds association and running buffer was flowed with 3000 seconds dissociation. The sensor chip was regenerated by guanidine hydrochloride and sodium hydroxide.

human IL31 [7] = biological target: T1, human IL31; assay: as above; remark: listed apart in the source
Method: as §1

human IL31 [8] = biological target: T1, human IL31; assay: binding kinetics, large-scale material, baseline sample; method and target not restated (SPR on IL31 presumed)

B1: 1D1 co-binder + huIgG1Fc_YTE_C→S (Fc fusion)
chain: EVQLVESGGGLVQAGGSLRLSCAASGGTFSSYAMAWFRQAPGKEREYVAGISSSGYTLYKSDSMKGRFTISRENAKNMVYLQMNSLKPEDTAVYSCAAGIFGRPYEYWGQGTLVTVSSGGGSGGGGSGGGGSGGGGSGGGGSPSMGVKLEESGGGLVQAGGSLILSCAASGDIPSIVAMGWYRQAPGKQRELVAAITSGGRTHYRDSVKGRFTISGNNDNSALYLHMNSLKPEDTAVYYCAADMGLTAVGEYDYWGQGTQVTVSSEPKSSDKTHTCPPCPAPELLGGPSVFLFPPKPKDTLYITREPEVTCVVVDVSHEDPEVKFNWYVDGVEVHNAKTKPREEQYNSTYRVVSVLTVLHQDWLNGKEYKCKVSNKALPAPIEKTISKAKGQPREPQVYTLPPSRDELTKNQVSLTCLVKGFYPSDIAVEWESNGQPENNYKTTPPVLDSDGSFFLYSKLTVDKSRWQQGNVFSCSVMHEALHNHYTQKSLSLSPGK
notes: VHH1-linker-VHH2-Fc; also called 1D1 WT; 1D1Fc
Activity (IC50, nM); pSTAT3 assay per Table 4 (human IL31 [1]): 6.7 nM
Activity (IC50, nM), pSTAT3 assay (P^3) (human IL31 [2]): 6.7 nM
EC50 (pSTAT3) nM (human IL31 [3]): 8.42 nM
Kd (human IL31 [4]): 3.22 nM
koff (human IL31 [4]): 0.000628 s⁻¹
kon (human IL31 [4]): 195000 M⁻¹ s⁻¹
Kd (human IL31 [5]): 0.0153 nM
Kd (human IL31 [6]): 0.024 nM
Kd (human IL31 [7]): 0.024 nM
Kd (human IL31 [8]): 1.94 nM
koff (human IL31 [8]): 0.000405 s⁻¹
kon (human IL31 [8]): 209000 M⁻¹ s⁻¹

B2: 1H5 co-binder + huIgG1Fc_YTE_C→S (Fc fusion)
chain: EVQLVESGGGSVQAGGSLRLSCAASGGTFSSYAMAWFRQAPGKEREYVAGISSSGYTLYKSDSMKGRFTISRENAKNMVYLQMNSLKPEDTAVYSCAAGIFGRPYEYWGQGTQVTVSSGGGGSGGGGSGGGGSRSVGVQLVESGGGLVQAGGSLRLSCAASGSISSIHAMGWYRQAPGKQRELIAAITSGGRRHYRDSVKGRFTISGDNAKTNLYLQMNSLKPEDTAVYYCAADTGRVAVGEYDYWGQGTLVTVSSEPKSSDKTHTCPPCPAPELLGGPSVFLFPPKPKDTLYITREPEVTCVVVDVSHEDPEVKFNWYVDGVEVHNAKTKPREEQYNSTYRVVSVLTVLHQDWLNGKEYKCKVSNKALPAPIEKTISKAKGQPREPQVYTLPPSRDELTKNQVSLTCLVKGFYPSDIAVEWESNGQPENNYKTTPPVLDSDGSFFLYSKLTVDKSRWQQGNVFSCSVMHEALHNHYTQKSLSLSPGK
notes: VHH1-linker-VHH2-Fc
Activity (IC50, nM); pSTAT3 assay per Table 4 (human IL31 [1]): 6.1 nM
Activity (IC50, nM), pSTAT3 assay (P^3) (human IL31 [2]): 6.1 nM
Kd (human IL31 [4]): 0.619 nM
koff (human IL31 [4]): 0.000551 s⁻¹
kon (human IL31 [4]): 890000 M⁻¹ s⁻¹
Kd (human IL31 [6]): 0.0032 nM
Kd (human IL31 [7]): 0.0032 nM
Kd (human IL31 [8]): 0.136 nM
koff (human IL31 [8]): 0.000138 s⁻¹
kon (human IL31 [8]): 1.01e+06 M⁻¹ s⁻¹

B3: 21H7 co-binder + huIgG1Fc_YTE_C→S (Fc fusion)
chain: EVQLVESGGGLVQAGGSLRLSCAASGGTFSSYTMGWFRQAPGKEREYVGGISSSGYVMYNSESMKGRFTISRENAKNMVYLQMNSLKPEDTAVYYCAAGTIGRPYDYWGQGTQVTVSSGGGSGGGGSGGGGSGGGGSGGGGSGGGGSGGGGSEGVGLVESGGGSVQAGDSLRLSCAASGRTFSTYIIGWFRQAPGKEREFVASISWGGRGTYYADSVKDRFTISRDNPKNMVYLQMNSLKPEDTAVYYCAAGDLPGGRRALDYDYWGQGTLVTVSSEPKSSDKTHTCPPCPAPELLGGPSVFLFPPKPKDTLYITREPEVTCVVVDVSHEDPEVKFNWYVDGVEVHNAKTKPREEQYNSTYRVVSVLTVLHQDWLNGKEYKCKVSNKALPAPIEKTISKAKGQPREPQVYTLPPSRDELTKNQVSLTCLVKGFYPSDIAVEWESNGQPENNYKTTPPVLDSDGSFFLYSKLTVDKSRWQQGNVFSCSVMHEALHNHYTQKSLSLSPGK
notes: VHH1-linker-VHH2-Fc; also called 21H7 WT; 21H7Fc
Activity (IC50, nM); pSTAT3 assay per Table 4 (human IL31 [1]): 8.4 nM
Activity (IC50, nM), pSTAT3 assay (P^3) (human IL31 [2]): 8.4 nM
EC50 (pSTAT3) nM (human IL31 [3]): 6.65 nM
Kd (human IL31 [4]): 19.4 nM
koff (human IL31 [4]): 0.00435 s⁻¹
kon (human IL31 [4]): 224000 M⁻¹ s⁻¹
Kd (human IL31 [5]): 0.0104 nM
Kd (human IL31 [6]): 0.0148 nM
Kd (human IL31 [7]): 0.0148 nM
Kd (human IL31 [8]): 18.6 nM
koff (human IL31 [8]): 0.00423 s⁻¹
kon (human IL31 [8]): 228000 M⁻¹ s⁻¹

B4: 1C10 co-binder + huIgG1Fc_YTE_C→S (Fc fusion)
chain: EVQLVESGGGLVQAGGSLRLSCAASGGTFSSYTMGWFRQAPGKEREYVGGISSSGYVMYNSESMKGRFTISRENAKNMVYLQMNSLKPEDTAVYYCAAGTIGRPYDYWGQGTQVTVSSGGGSGGGGSGGGGSGGGGSGGGGSGGGGSGGGGSGMTGVKLEESGGGLVQPGGSLILSCAASGDISSIVAMGWYRQAPGKQRELVAAITSGGRTHYRDSVKGRFTISGNNDNSALYLHMNSLKPEDTAVYYCAADRGWTSVGEYDYWGKGTLVTVSSEPKSSDKTHTCPPCPAPELLGGPSVFLFPPKPKDTLYITREPEVTCVVVDVSHEDPEVKFNWYVDGVEVHNAKTKPREEQYNSTYRVVSVLTVLHQDWLNGKEYKCKVSNKALPAPIEKTISKAKGQPREPQVYTLPPSRDELTKNQVSLTCLVKGFYPSDIAVEWESNGQPENNYKTTPPVLDSDGSFFLYSKLTVDKSRWQQGNVFSCSVMHEALHNHYTQKSLSLSPGK
notes: VHH1-linker-VHH2-Fc; also called 1C10 WT; 1C10Fc
Activity (IC50, nM); pSTAT3 assay per Table 4 (human IL31 [1]): 8.5 nM
Activity (IC50, nM), pSTAT3 assay (P^3) (human IL31 [2]): 8.5 nM
EC50 (pSTAT3) nM (human IL31 [3]): 6.57 nM
Kd (human IL31 [4]): 3.45 nM
koff (human IL31 [4]): 0.000675 s⁻¹
kon (human IL31 [4]): 196000 M⁻¹ s⁻¹
Kd (human IL31 [5]): 0.0126 nM
Kd (human IL31 [6]): 0.0587 nM
Kd (human IL31 [7]): 0.0587 nM
Kd (human IL31 [8]): 1.5 nM
koff (human IL31 [8]): 0.00033 s⁻¹
kon (human IL31 [8]): 220000 M⁻¹ s⁻¹
